Results from patent US20260049115A1.

Molecular target: CCR5 on ThP1 human monocytes (human) (UniProt P51681)
Sequence (P51681 whole entry): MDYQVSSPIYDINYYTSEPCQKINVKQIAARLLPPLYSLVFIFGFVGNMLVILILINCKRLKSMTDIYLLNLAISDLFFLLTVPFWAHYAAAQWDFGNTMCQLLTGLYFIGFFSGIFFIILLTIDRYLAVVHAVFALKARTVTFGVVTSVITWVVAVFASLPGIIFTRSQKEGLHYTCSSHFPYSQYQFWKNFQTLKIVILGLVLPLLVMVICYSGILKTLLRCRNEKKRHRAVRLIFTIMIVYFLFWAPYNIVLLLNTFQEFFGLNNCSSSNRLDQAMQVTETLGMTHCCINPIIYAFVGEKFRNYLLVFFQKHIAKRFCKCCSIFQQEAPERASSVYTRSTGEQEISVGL

In the case of “native form murine CCL4 (from UniProt P14097 24-92) (ligand)”, the EC50, calcium flux (RFU) in ThP1 monocytes [panel D] is reported as 6.3 nM.
